Patent US20220259605A1 (OXFORD UNIVERSITY INNOVATION, published 2022)

Target: T1, human CEACAM5 protein (SinoBiological) (human, UniProt P06731 35-685)
T1 construct: also called human CEA protein; carcinoembryonic antigen
T1 sequence: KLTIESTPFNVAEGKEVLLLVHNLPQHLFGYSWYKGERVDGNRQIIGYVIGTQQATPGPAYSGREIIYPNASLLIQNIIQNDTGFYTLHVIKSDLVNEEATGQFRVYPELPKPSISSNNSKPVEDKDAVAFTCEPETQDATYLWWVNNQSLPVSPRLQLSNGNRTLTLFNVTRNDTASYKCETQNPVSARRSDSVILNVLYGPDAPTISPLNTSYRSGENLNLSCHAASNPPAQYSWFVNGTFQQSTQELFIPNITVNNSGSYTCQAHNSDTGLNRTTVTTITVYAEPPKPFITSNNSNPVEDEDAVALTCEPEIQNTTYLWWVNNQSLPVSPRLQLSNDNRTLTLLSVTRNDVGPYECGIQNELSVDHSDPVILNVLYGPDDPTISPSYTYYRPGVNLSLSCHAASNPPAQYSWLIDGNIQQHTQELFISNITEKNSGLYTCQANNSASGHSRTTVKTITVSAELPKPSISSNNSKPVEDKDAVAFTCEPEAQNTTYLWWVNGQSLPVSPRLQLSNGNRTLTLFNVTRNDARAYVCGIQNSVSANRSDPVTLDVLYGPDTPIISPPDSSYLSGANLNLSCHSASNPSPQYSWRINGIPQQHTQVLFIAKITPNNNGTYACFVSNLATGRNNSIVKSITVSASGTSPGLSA
Assay: biological agglutination test

B1: C43 anti-CEA nanobody, surface-displayed on E. coli through the pNV intimin display system (VHH)
VHH: EVQLVESGGGLVQAGGSLTLSCTSSTLTFTPYRMGWYRQTPGKQRDLVADISPGDGSTKNYAGFAQGRFTISRDNIKNTVYLQMNDLKPEDTAVYYCNTYVAFVGRARTWGQGTQVTVSS
notes: domain: β-intimin domain; also called pNVC43; pNVC43_sfGFP
B1: binds.
